# Experiments:
# [1] = target: GP075m, variant of the putative baseplate wedge protein GP075 with the substitution T239A (phage K8-T239A), His-tagged (Pseudomonas phage K8-T239A (derivative of phage K8)); assay: SEC-MALS; 100 ul of protein solution (0.15-4.05 mg/ml) on a WTC-015S5 column; 100 mM NaCl, 50 mM Tris-HCl, 1 mM EDTA, 0.02% NaN3, pH 7.4; 0.4 ml/min; BSA as control; self-polymerization degree
# [2] = target: putative baseplate wedge protein GP075 of Pseudomonas phage K8, His-tagged (Pseudomonas phage K8); assay: as above
Substance,molar mass [1],molar mass [2]
"GP075m, variant of the putative baseplate wedge protein GP075 with the substitution T239A (phage K8-T239A), His-tagged (natural protein)",185,
"putative baseplate wedge protein GP075 of Pseudomonas phage K8, His-tagged (natural protein)",,81.2

# Reference: article PMC9887876
